Tested on: K4 kissing-loop RNA reporter
Experiment: apparent KD of K4 kissing-loop reporter; higher = weaker reporter binding
Conditions: Eterna round: R107
Description: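 RNA-MaP round R107: designed RNA switches with theophylline, tryptophan, arginine or FMN aptamers are transcribed on-chip within common flanks. They are titrated with a labelled K4 kissing-loop RNA reporter in RNA-MaP buffer (100 mM Tris pH 7.5, 80 mM KCl, 4 mM MgCl2), without ligand or with the indicated ligand. Median apparent KD per design.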

[1] = input ligand: theophylline 20 uM
[2] = input ligand: tryptophan 2.4 mM
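Further: bound reporter read as fluorescence of individual clusters on recovered sequencing chips by microscopy, with normalized cluster intensities fitted with a binding model.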

| Sequence | apparent KD of K4 kissing-loop reporter (input ligand: FMN 200 uM) [µM] | apparent KD of K4 kissing-loop reporter (input ligand: arginine 13.2 mM) [µM] | apparent KD of K4 kissing-loop reporter (input ligand: none) [µM] | apparent KD of K4 kissing-loop reporter [1] [µM] | apparent KD of K4 kissing-loop reporter [2] [µM] |
| --- | --- | --- | --- | --- | --- |
| CGAGCGCGUGCGGCCGCCACUACUAUAAGUCGUCCAAGUUAGUGAUGUUGACUGAACGUCGGAAAUAGGACCGGGCAUAGUUUUA [theeternabot_sameState_KL_Trp_B_40] | 0.351 | 0.41 | 0.42 | 0.415 | 0.3 |
| UCAGUGAUGUUGAACAAAUAAUGGUUCCUAAAGGAUAUCCACAGAUGGAGAAGGUUAGUAGCGGCUCGCACAUCGUAGGACAAAU [theeternabot_exclusion_KL_FMN_A_1] | 0.767 | 0.648 | 0.734 | 0.602 | 0.526 |
| AGUCCACUCUAAAGAGUGGACCUAAGGGAUACCAGUGAUGUUGGUCACCCUUGGCAGCCCACUGUCAUCGAUAAAGAUGGCAGCA | 0.119 | 0.106 | 0.113 | 0.117 | 0.117 |
| AAAUUUAAUAUAUUUAAAUAAAUAUGUGAUACCAGACAUUUAUAAGUCCCUUGGCAGCACAAUGCAGUGAUGUUGCUUAUAAUAA [JR_SSTheophyA_Sub017] | 0.0856 | 0.114 | 0.0888 | 0.192 | 0.0735 |
| GCCGUAGAUUGAAGGAGCGUGGACCUAUCGCUUGAACAGUGAUGUUGUUUAUCUAGGGAGCCGCAGGUAGGUCGCAAUCUACGGC | 0.47 | 0.355 | 0.478 | 0.37 | 0.386 |
| UAUGAAGGUGGAGGAUAUUGAUUGAACCUUGGUCAGGAGUGAUGUUCCGGGAAGCCUUGGGUUCAUCGAGAAGGCCAAGGAUAGU [Extra 2] | 0.139 | 0.257 | 0.254 | 0.28 | 0.238 |
| AGACUACUGACAGGAUAUGGCAUCCUGGUCGUAUACCGAAAGGUAUACGAUUUUCUUCUAGUGAUGUUAGAAGGGUCGGUAGUCA [Omei KL FMN B Exc B v15] | 0.128 | 0.0863 | 0.0973 | 0.0892 | 0.0927 |
| UGCAUGCUUAGAGUGAUGUUCUAAGAUGAUACCAGUGCUUUUUUGCACCCUUGGCAGCGUCUGAUUGCAUGCACGUCGAAAGACG | 0.288 | 0.287 | 0.279 | 0.266 | 0.289 |
| AGUGAACGAGCGGCCGCCACUAAAUGAGUGAUGUUCGUGAGUAGUGCUGUUGUCAUGAUUGUUUUUAGGACCGGGUUCGAUGUUG [popplmullin] | 0.719 | 0.735 | 1.27 | 0.963 | 0.719 |
| UAAGAAUAAGUAGCAGUGAUGUUGCUACUACGAGGACCGGUACGGCCGCCACUCGAGCCGUACAAAGUAGCAACUAGUACGAAUA [(H1)-(H2)-(Trp1)-(Trp2)-(T)'-(H)'-(T)''] | 0.231 | 0.194 | 0.223 | 0.246 | 0.365 |
| CAAACGUGCGGUAGGUUCAAGCGCUGGGAAGGAGCGCAGAUGACUGCAGGUAGGUCGCCCAGUGAUGUUGGGCUUUCCACCUACG [Dilausma] | 0.138 | 0.123 | 0.119 | 0.138 | 0.0999 |
| GACCCAGAAGCACACCUAAAGUUGACAGAUACCAGCGUCGUUUGGCGCCCUUGGCAGCUGGUCAGUGAUGUUGAUAGCUUCGACU [theeternabot_sameState_KL_Theo_A_24] | 0.197 | 0.0695 | 0.181 | 0.0895 | 0.0936 |
| AUUUGUUUAUGUGAUACCAGACUUUGCAGUGAUGUUGCAUUUAUUUUAGAAGAAUAGUUUGUCCCUUGGCAGCACUAUGUAUUUA [JR_SSTheophyB_Sub006] | 0.0449 | 0.0982 | 0.0493 | 0.0807 | 0.0415 |
| AUUAAUAUCACGGCCGCCACUGAAUAUUGUUUUUAUAUUUAGAAAUCUUGCCAGUGAUGUUGGAUCAGGACCGGGUGAGUUUAUA [JR_SSTryptoB_Sub006] | 0.613 | 0.439 | 0.463 | 0.424 | 0.444 |
| UAGGAGUGAUGUUCCAUAUCUUGAGCCGAAGGAGCGCCUUUCUAGGCAGGUAGGUCGCGGCAGAAGGUACCAGUGAUGUUGGAAA [Same State Arginine A GF7] | 0.163 | 0.171 | 0.208 | 0.184 | 0.145 |
| UUAUAAUUCAGUGAUGUUGAAAAUAUAACAGAGGAUAUGCGUUUAAGCAGAAGGCUGAAAUACUAUACUUUAAUCUAUUAAAUUU [JR_SSFMNA_Sub019] | 0.232 | 0.377 | 0.313 | 0.332 | 0.212 |
| GGUUUAUAGGAGGAUACCAGUACGGAUAAAGUACAUUAAUAGUAGAGUGAUGUUCUAAAGUACCCUUGGCAGCUUAGAUUAAGUU [ExTheophylB.I] | 0.0871 | 0.177 | 0.133 | 0.209 | 0.074 |
| UACAUCGAGCAGAGUGAUGUUUUGUGCGAUACCAGCAAGUGCAAGUGCCCUUGGCAGCGCAAGCGGUUGUAUGUAGGACCGGACG [theeternabot_exclusion_KL_Theo_A_21] | 0.433 | 0.647 | 0.657 | 0.964 | 0.432 |
| CUCGUGGGUUUGAGAGGGCUUGUGGGAAGUGAGGAUAUUUAGGGAGGGAGAAGGUACUAUAGAAUAUAGUGAUGUUAUAUAUGGG [SSFMNA.U] | 0.264 | 0.138 | 0.185 | 0.111 | 0.147 |
| UGAUAGGACAGAAGGAGCGGGAGUGAUGUUCCCAAAGGAAGGUCUAGCAAAGCUGGACCCUCCCAGGUAGGUCGCUGUCCUAUCU [ArgBX 4 #SwitchBubble #StaticStem] | 0.129 | 0.123 | 0.124 | 0.155 | 0.118 |
| GACACACUUUCAGGUGUCCAGUGACUGGAUACCAGCAUGGAAACAUGCCCUUGGCAGCCAGAACUGGAAGUGAUGUUUCCAGUAA [Theo A Mod Design7 (Brourd)] | 0.38 | 0.241 | 0.346 | 0.262 | 0.33 |
| CCUAUCUCAUACGAUACCAGUCCGAGUGAUGUUCGAACAUAAAUUAGUUUGCCAUAUAAUGACCCUUGGCAGCGUAUGGGAUAGG [Ex Theophylline B K4 12] | 0.576 | 0.448 | 0.55 | 0.623 | 0.522 |

| Sequence | apparent KD of K4 kissing-loop reporter (input ligand: FMN 200 uM) [µM] | apparent KD of K4 kissing-loop reporter (input ligand: arginine 13.2 mM) [µM] | apparent KD of K4 kissing-loop reporter (input ligand: none) [µM] | apparent KD of K4 kissing-loop reporter [1] [µM] | apparent KD of K4 kissing-loop reporter [2] [µM] |
| --- | --- | --- | --- | --- | --- |
| AAGCAGUCACUCGAAGCCAUCGAAGAUGGUCGAGGACCGGUACGGCCGCCACUCGGAGUGAUGUUCCGAAGACUGCAAAAUAAAA [#SwitchBubble 11] | 0.275 | 0.246 | 0.286 | 0.273 | 0.526 |
| UGGAGUUGACGAAAAGUCAACUCCUGAGAUCGAGGACCGGUACGGCCGCCACUCGAGCUAACUGCGAGUGAUGUUCGAAAAUAAA [#OpenEnded 1 - Direct theophylline transfer] | 0.191 | 0.313 | 0.235 | 0.393 | 0.0971 |
| UGUGAUGUGUAGUGUGAUGUUUUGAAGGAUACCAGAGUGUUGUUAUUCCCUUGGCAGCUUGAGUGAUGUUUGAUGUUGUUGUUGU [aawemullin] | 0.324 | 0.179 | 0.26 | 0.229 | 0.224 |
| AAGCAGUCACUCGAAACCAUCGAAGAUGGGCGAGGACCGGUACGGCCGCCACUCGGAGUGAUGUUCCGAAGACUGCAAAAUAAAA | 0.377 | 0.348 | 0.592 | 0.443 | 0.354 |
| UGAUACCAGACGGCCGCCACUACACCAGUCAAAGACUGGAUGUGAUGUUUGACCAGUGAUGUUGGUAGGACCGGGUCUGGUAUCU [TrypBX 5 #Palindromic #SwitchBubble #StaticStem] | 0.5 | 0.394 | 0.45 | 0.494 | 0.326 |
| AUGUCUUAUAAACUCGUGGUUUCGAUCGAUACCAGUAGCGAGAGUUACCCUUGGCAGCGACAUGAGUGAUGUUCAUGUACGAAGA [KL-XTheoA4] | 0.0961 | 0.089 | 0.0943 | 0.0902 | 0.0929 |
| AUGCGCAGCCUGCUUACGUAUGAGCCGGAAGGAGCGGCAGAAUUGCCAGGUAGGUCGCCGGCCCAGUGAUGUUGGGAUGGUGUGG [Atusqubela] | 0.279 | 0.167 | 0.343 | 0.419 | 0.264 |
| UAAGAUAUGAGGGAUACCAGCCAUAAGGAAAGUGUGAUGAGUGAUGUUCUGACAAGCCAAGGCCCUUGGCAGCUUUAAUAGCAUC [whbob_SS_Theo_B_th76] | 0.271 | 0.0808 | 0.164 | 0.218 | 0.203 |
| UGGAUAUAGUUUAGUCUGGUGAGGUCAGAUACCAGACUAGCGAUAGUCCCUUGGCAGCUGAUUAUGAUUGAGUGAUGUUCAAUCG [Theo A Ex t9] | 0.187 | 0.151 | 0.17 | 0.157 | 0.157 |
| AAGUGAUGUUGUAGUGAUGUUGUGAUGUUGCAGGAUAUAUAGUGAUGUAGAAGGGUAUGUGCAGUUUUUUUUUUUGAGUGUUGAU [dpdmullin] | 0.0766 | 0.0342 | 0.0599 | 0.0431 | 0.061 |
| GCCCGGGCGAGUGAUGUUCGCCCACGUGAUACCAGUGCCAUCCAACACCCUUGGCAGCACGCGGGCAGUGAUGUUGCCCUUGUAU [Exclusion Theophylline A GF 4] | 0.115 | 0.11 | 0.122 | 0.138 | 0.111 |
| AAAUAGAUCAGUCAUCCAGUGAUGUUGGAAGGAGCGUGCGAAAGCACAGGUAGGUCGCCAGAAUAAAAGUGGCUGAUCAAAAUAA | 0.273 | 0.318 | 0.322 | 0.467 | 0.178 |
| CUAAGGGAAGCAGGAUAUCGGUAUUAGUGUGUUAAAUAAACACUCGGGUAGUGAUGUUGCCCGUGGCGAGAAGGGCUACCAUUGG [Laace] | 0.0336 | 0.0448 | 0.0487 | 0.0414 | 0.0473 |
| UUAGGAGUGGAAGGAUAUCCUGGUGUGGGUGGUGUUAGUGAUGUUGGUGGUGCAGUGAUGUUGCGCGGAGAAGGUCCGGUGUUGA [BDazzled - #4 - Exc. FMN B] | 0.471 | 0.384 | 0.434 | 0.554 | 0.358 |
| GCGCGUCAUGUCAGCGGUGACACUGUCGAUACCAGCGCCGAAAGGCGCCCUUGGCAGCGACGUGCUGGAGUGAUGUUCCAGCGUG [#2 Exclusion - Theophylline A Attempt #25 (HarryS)] | 0.197 | 0.16 | 0.182 | 0.203 | 0.184 |
| GGAUCCACCAGUGAUGUUGGAGAAAACUUCAAGGAUAUGACGAAAGUCAGAAGGUGAUAGACUGGACAAAGUCCGGUCGGAUCCA [FmnA 19 U29+A57] | 0.552 | 0.729 | 0.454 | 0.527 | 0.462 |
| GAAUUAAUGUCUUUAAUAUAAUAAUCAGAUACCAGUGAUUUGUGACACCCUUGGCAGCUGUAUAGAGUGAUGUUCUUAUACAUAA [#12 K4 Theophylline A Exclusion] | 0.352 | 0.46 | 0.409 | 0.509 | 0.279 |
| AUGGUAUUGCGAGGAUAUCCUUCAAACGUGACACUAACGGCAGUGAUGUUGCCGGCGUCGAUCAGAGGAGAAGGCGCGGUGUUAU [Exclusion FMN B GF 23] | 0.118 | 0.117 | 0.122 | 0.125 | 0.119 |
| AAGUGUUCUAGUGAUACCAGACAUUUCUAUUACAUUAAUAUAGCUAAGUGAUGUUUAGCAGUCCCUUGGCAGCACUAUUUCACUA [JR_SSTheophyB_Sub015] | 0.167 | 0.193 | 0.174 | 0.238 | 0.191 |
| GGGUUUGCCGGAAGGAGCGCACUAUGGAGUGAUGUUCCAUGACCGCACAGCUUGCGGUCAGUGCAGGUAGGUCGCCGGUAGCGUU [Maedzaus] | 0.205 | 0.203 | 0.239 | 0.271 | 0.179 |
| GAUGGGUAUCAAGGAUAUGCCACUAUUGACUCCUAGAUGGUCAACCAUAUAAUGCGAGUGAUGUUCGCAGAAGGUGAUUCUUAGC [theeternabot_exclusion_KL_FMN_B_24] | 0.0923 | 0.0923 | 0.0895 | 0.0897 | 0.0732 |

From the supplement of paper PMC9170038
